Assay: soluble on expression in E. coli; label from the status in PepcDB or PDB records

Sequence	soluble on expression in E. coli
MTATLSWIDEITMTELERNPYPVYERLRAEAPLAYVPVLGSFVATTADLCRTIANSPDFEGIITKAGGRTFGHPAVIGVNGEIHRDLRSMVDPALQPSEVDRWVDGLVRPIARRYVEQFENDGKADLVSQYCEPVSVRALGDLLGLNEVSSDTLRDWFHRLSNSFTNAGVDADGEFTNPEGFVQGDEAKAEIRAVVDPLIDKWTVHPDDSAISHWLHDGMPEGQVRDREYIYPTLFVYLLGAMQEPGHGMASTLVGLFTRPEQLEAVIDEPALIPRAISEGMRWTSPIWSATARISTKDVTLGDVFLPEGSVVLLSYGSANHDTAVYDAPSDYDMTRPPLPHLAFGSGNHACAGIYFANHVCRIGLEELFEAIPNLERDSGADVEFWGWGFRGPTALRATWEV	not soluble
MGSMSMNAEQTVAELIARSNRLGSDPKNTNYAGGNTSAKGTDTDPVTGQPVELLWVKGSGGDLGTLTENGLAVLRLDRMRALVDVYPGVEREDEMVAAFDYCLHGRGGAAPSIDTAMHGLVDAAHVDHLHPDSGIALATAADGEALTKQIFGDRVVWVPWRRPGFQLGLDIADIKRRNPQAIGTILGGHGITAWGSTSAEAEAHSLEIIETAERYIAENGRPEPFLEHHHHHH	not soluble
MIPMEELKVKKITNGTVIDHIDAGKALMVFKVLNVPKETSVMIAINVPSKKKGKKDILKIEGIELKKEDVDKISLISPDVTINIIRNGKVVEKLKPQIPDEIEGTLKCTNPNCITNKEKVRGKFKIESKNPLKIRCYYCEKFLNEVIFE	soluble
MHRASLICRLASPSRINAIRNASSGKSHISASTLVQHRNQSVAAAVKHEPFLNGSSSIYIEQMYEAWLQDPSSVHTSWDAYFRNVEAGAGPGQAFQAPPATAYAGALGVSPAAAQVTTSSAPATRLDTNASVQSISDHLKIQLLIRSYQTRGHNIADLDPLGINSADLDDTIPPELELSFYGLGERDLDREFLLPPTTFISEKKSLTLREILQRLKDIYCTSTGVEYMHLNNLEQQDWIRRRFEAPRVTELSHDQKKVLFKRLIRSTKFEEFLAKKWPSEKRFGLEGCEVLIPAMKQVIDSSSTLGVDSFVIGMPHRGRLNVLANVCRQPLATILSQFSTLEPADEGSGDVKYHLGVCIERLNRQSQKNVKIAVVANPSHLEAVDPVVMGKVRAEAFYAGDEKCDRTMAILLHGDAAFAGQGVVLETFNLDDLPSYTTHGAIHIVVNNQIGFTTDPRSSRSSPYCTDVGRVVGCPIFHVNVDDPEAVMHVCNVAADWRKTFKKDVIVDLVCYRRHGHNELDEPMFTQPLMYQRIKQTKTALEKYQEKILNEGVANEQYVKEELTKYGSILEDAYENAQKVTYVRNRDWLDSPWDDFFKKRDPLKLPSTGIEQENIEQIIGKFSQYPEGFNLHRGLERTLKGRQQMLKDNSLDWACGEALAFGSLLKEGIHVRLSGQDVQRGTFSHRHHVLHDQKVDQKIYNPLNDLSEGQGEYTVCNSSLSEYAVLGFELGYSMVDPNSLVIWEAQFGDFSNTAQCIIDQFISSGQSKWIRQSGLVMLLPHGYEGMGPEHSSARPERFLQMCNEDDEIDLEKIAFEGTFEAQQLHDTNWIVANCTTPANIYHLLRRQVTMPFRKPAVVFSPKSLLRHPMARSPVEDFQSGSNFQRVIPETGAPSQNPPDVKRVVFCTGKVYYDMVAARKHVGKENDVALVRVEQLSPFPYDLVQQECRKYQGAEILWAQEEHKNMGAWSFVQPRINSLLSIDGRATKYAGRLPSSSPATGNKFTHMQEQKEMMSKVFGVPKSKLEGFKA	not soluble
MTRFSGKVALVTGSSNGIGRATAVLLAQEGAKVTITGRNADRLEETRQEILKSGVPEDHVLSIATDLATEKGQDELVNSTIQKFGRLDILVNNAGAAFNDDQGRVGVDQDVSVYDRIMQINMRSVVTLTQKAKEHLVKAKGEVVNVSSIGAGPQAQPTFMYYAMSKAALDQYTRSAAIDLIQYGVRVNSVSPGAVVTGFGEAMGMPADMHEKYGHFMESRKECIPCGKMGQPIDIANIIAFLADRKLSSYIIGQSIVADGGSTLVMGMQAHNFMDLLKQ	not soluble
MKYIDCAVIGAGPAGLNASLVLGRARKQIALFDNNTNRNRVTQNSHGFITRDGIKPEEFKEIGLNEVMKYPSVHYYEKTVVMITKQSTGLFEIVTKDHTKYLAERVLLATGMQEEFPSIPNVREYYGKSLFSCPYCDGWELKDQPLIIISENEDHTLHMTKLVYNWSTDLVIATNGNELSQTIMDELSNKNIPVITESIRTLQGEGGYLKKVEFHSGLRIERAGGFIVPTFFRPNQFIEQLGCELQSNGTFVIDDFGRTSEKNIYLAGETTTQGPSSLIIAASQGNKAAIAINSDITDERF	soluble
MLKGIDLTYPQLTYLPETGILYDNTYNEKTVPIISGGGSGHEPAHVGYVGSGMLAAAVTGPLFIPPKSKNILKAIRQVNSGKGVFVIIKNFEADLKEFNEAIKEARTEGIDVRYIVSHDDISVNAYNFHKRHRGVAGTILLHKILGAFAKEGGSIDEIEQLALSLSPEIYTLGVALAPVHFPHQKTSFVLAEDEVSFGIGIHGEPGYRVEKFEGSERIAIELVNKLKAEINWQKKANKNYILLVNGLGSTTLMELYSFQYDVMRLLELEGLSVKFCKVGNLMTSCDMSGISLTLCSVKDPKWLDYLNVPTGAFAWLEHHHHHH	not soluble
MRKKPLTIFSDGTLTRRENTLYFESAKGRKPLAIEGIYDIYIYGHVNITSQALHYIAQKGILIHFFNHYGYYDGTFYPRETLLSGDLIIRQAEHYLNKEKRLFLAKSFVTGGTKNMERNLKNWGIKAKLSDYLDELNDARKITEIMNVEARIRQEYYAKWDENLPEEFKIVKRTRRPPKNEMNALISFLNSRLYATIITEIYNTQLAPTISYLHEPSERRFSLSLDLSEIFKPIIADRVANRLVKKGSLKKEHFREDLNGVLLTEEGMKIVTKAYNEELQKSVKHPKIGSNVTRQRLIRLEAYKLIKHLVGVEEYKPLVAWF	soluble
KGDDTYYIIFTSGTTGKPKGVQISHDNLLSFTNWMINAEAFATPHRPQMLAQPPYSFDLSVMYWAPTLALGGTLFALPKEITADFKQLFTTINQLPIGVWTSTPSFVDMAMLSDDFNAQQLPHLTHFYFDGEELTVKTAKKLRQRFPQARIVNAYGPTEATVALSALAVTDKML	not soluble
MGSDKIHHHHHHMKIDDKTGLVLEGGGMRGVFTCGVLDYMMDKKVWFPYGVGVSAGACNGLSYMSRQRGRAKFSNIDLLEKYHYIGIKHLWRKHSILDQELLYEHFPKEILPYDYKTYAENPARFEMVTTNCITGRACYLEEKHDPRRIIAIAKASSSLPYVCPIAYVDGEPMLDGGIVDSIPVLRAIEQGFDKNVVVLTRNRGYRKKGKDMKIPHFIYKKYPRLRVVLSKRCRIYNEQLDLVEQLEDKGRIVVIRPEKPMEVDRIETDIKKLTDLYEEGYACAKKMFEEKRILQK	not soluble
MTYLAVVLNGPKAKNGRKVFDSFLEQNRQMFWNRELTSACESITYMGFMRPGTLFVSGPASQLTVLKDAWARRILKPAMGYTITSLGDLGAIQQVEQMHFVPLGDVICDAVAQLNRQGLAATEQAIRQYVARHCPHVAPPGIEMVRQTITSLLSTGFVYKMADHYFVSVPTNSPMRPPAKAATKTTKTTVECQTGASMMCPQQTSTSSDEHVIEPAKKDHKKCQNSNRRSIFARLFSRGMKPQTIMPSASPIHVGGPPTPPPAAMLPTKNKYPTYHHDLNEECQRKARRRNHPRRGETQKLLSSSSECLKYYPVDMPETRPTRRRARMASPLRSSTPNNSDSAYSISPPHTDSNEEAGSISDSEINHTYININKFRRQNFDSTQFEDLTGATATTSEEPEILGRHIRGVLISNL	not soluble
SDGPERDFNLKVVLISFKKCLTDKGEVLLDHYTASWKGLVRFLNSLGAVFSFISKDVVSKLQIMEHLRSGPQSEHYISLQSMVAYEVSNKLVDRDSRSRPRHPNSGCRTVLRLHRALHWLQLFLEGLRTSSEDARTSTLCSEAYNATLAAYHSWIVRQAVNVAFHALPPRKVFLEAMNMGSSEQAVEMLGEALPFIEQVYDISQKLYAEHSLLDLP	soluble
MGSDKIHHHHHHSCTSQKKKLAKMHTEDTIVKAQLIQHTKESLLSPYQHVNFQLDLTKNKTAFYGYNTGSKWELWVKTDSTITFKYDGEEMVFSSAKTTEAQDNPVVKYHSKTIVSNPSQPGLKKSITVMIRDEKYLDEIQGTYVPLSVRIEVEDHTNKTTVIYAGGGFYVVNPIIHDIWVLDSMSNVKVSAENFPLGAPRLEFHLDGGKIYGFSGCNEITATFYTIQNQIQLNSEISTLKSCVHVPLEPLFMGALANKRYYYSFEERRLKLKHRDGSILSFKKVD	not soluble
MNWNKRLLDTPIIGDITKKIVSAKASREAHNISDHFTQFLQPCVAVSQTLKEEAFKIRHNVYCEELAFEEVRDNGQETDEFDHQSMFSLIKHKPSGTFTSCVRLVTSSGPDELLPIEKYCMGSITNEELSPKRFNRNEIAEISRLAVKSDFRRRKADNYKGSGTGVISEITYSETELRCFPFIAIGLYMAAATMSMNTGIRHVYVMMEPRLARSMKFIGINFQQLGPPVDYHGLRAPYYINPEIFMKNLSPGFKSLFSIIEEDICSQLNQLDLA	not soluble
MDDPVADQPDGTDETPDGDTAGSSPIGLADAQARAREAVAELLEHPFDGIITAESGADGGWRILAEVVERSAVPDTQDIIGRYEITLDDGGRVLEHHHHHH	not soluble
MSLLALGIEGTAHTLGIGIVSEKKVLANVFDTLTTEKGGIHPKEAAEHHARLMKPLLKKALEKAGISMDDIDVIAFSQGPGLGPALRVVATAARALAIRYNKPIVGVNHCIAHVEITKMFGIKDPVGLYVSGGNTQVLALEGGRYRVFGETLDIGIGNAIDVFARELGLGFPGGPKLEKLAEKGKNYIDLPYAVKGMDLSFSGLLTEAIRKYRSGKFRVEDLAYSFQETAFAALVEVTERALAHTEKKEVVLVGGVAANNRLREMLKIMAEDRGVKFFVPPYDLCRDNGAMIAYTGLRMYKAGISFPLEKTIVKQKFRTDEVEITWEGHHHHHH	not soluble
MASAVQAQHNVSDVSRMNVLFLMADDMRPELGCYGVEAVKTPNMDRLASSGVLFQNAYCNVPVSGASRASLLTGVYPHYPDRFVNFSAYASKDCPEAIPLSGWFTKNGYHTVSDGKVFHHMSDHAASWSEPPYRNHPDGYDVYWAEYNKWELWMNSESGKTINPKTMRGPFCESADVPDTAYDDGKLAERAIRDLRRMKEMNKPFFLACGFWKPHLPFNAPKKYWDLYKREEIPLASNRFRPEGLPEQVRNSSEIYAYARVTDTGDADFQREVKHGYYACLSYVDAQIGKVLDALDELGLAENTIVVLLGDHGWNLGEHDFVGKHNLMDRSTHVPLIIRVPGMKKGKTRSMVEFVDLYPTLCELCQIPQPAEQLDGQSFAKVFSNLKAKTKDEVYIQWEGGDNAVDQRFSYAEWMKGDVKKASMLFDHRIDKEENKNRVNEKKYKSKVESLSSFIKVKKSSLKKLEHHHHHH	not soluble
MGSDKIHHHHHHMTKHMTMKTPPIVSRQEWDAAREKMLVKEKATLRAKDALAAERRRMPWMEVDKAYVFEGPNGKASLLDLFEGRRQLIVYRAFFEPGVYGWPDHACRGCSLGADQVGHLAHLNARNTTLAYASRAPQADIVRLKARMGWEMPWYTITDSFDKDFGVDEWHGHNVFIHDGDRVFRTYLINSRGDEQMGTVWSYLDATPLGRQEIWEDSPEGYPQTPLYSWWNWHDNYEAGADKKWAEVAAAGEAAFRDKGE	not soluble
